Results on two molecules are retold here after publication PMC12075613.

For series [1], the target named is T1, LIMYB (L10-[…] MYB DOMAIN-CONTAINING PROTEIN) (Arabidopsis thaliana, UniProt Q9FFJ8 1-449).
T1 sequence: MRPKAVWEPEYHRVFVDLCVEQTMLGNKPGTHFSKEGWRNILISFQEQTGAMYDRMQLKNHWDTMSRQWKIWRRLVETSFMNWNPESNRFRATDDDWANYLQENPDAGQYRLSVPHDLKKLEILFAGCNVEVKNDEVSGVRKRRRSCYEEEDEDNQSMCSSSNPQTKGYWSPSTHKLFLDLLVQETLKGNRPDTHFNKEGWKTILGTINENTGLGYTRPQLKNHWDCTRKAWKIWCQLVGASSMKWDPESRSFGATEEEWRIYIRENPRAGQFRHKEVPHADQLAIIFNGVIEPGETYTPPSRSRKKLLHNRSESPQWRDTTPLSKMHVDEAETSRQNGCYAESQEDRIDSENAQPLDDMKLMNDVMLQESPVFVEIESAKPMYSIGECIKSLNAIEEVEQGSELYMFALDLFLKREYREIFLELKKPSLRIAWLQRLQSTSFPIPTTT
Kind of series: competition.

Series [2] has as its target T1, LIMYB (L10-[…] MYB DOMAIN-CONTAINING …). Kind of series: EMSA. For orientation: In EMSA bound probe runs differently from free probe, usually more slowly.

B1: RPL18 26-bp mutant competitor (CAAAAC to ATCGTG) (dsDNA)
DNA 1: GATGGAGGAAGATCGTGATTGACCAT
DNA 2: ATGGTCAATCACGATCTTCCTCCATC
Turning to B1, in series [1], the binding result is listed as “no binding”.

B2: RPL18 promoter 26-bp CAAAAC fragment (dsDNA)
DNA 1: GATGGAGGAAGCAAAACATTGACCAT
DNA 2: ATGGTCAATGTTTTGCTTCCTCCATC
Consider B2, for which the binding result in series [2] was “binds”.
